The record followed here is patent publication US20220112288A1 (published 2022).

The target in assay [1] is T1, human CD8 on human pan T cells (CD4-negative population) (human, UniProt P01732 22-235; P10966 22-210).
T1 construct: whole, on cells; Endogenous CD8 on primary human pan T cells, read in the CD4-negative gate; also called CD8α/β
In words: flow cytometry, 20 nM antibody on human pan T cells, A647 anti-human IgG Fc; geomean ratio in CD4-negative population.

For assay [2], the target named is T2, human CD4 on cells (SKW3 cells; human PBMCs) (human, UniProt P01730 26-458).
T2 construct: whole, on cells; SKW3 CD4 knockout cells served as the negative cell line in the primary screen; also called hCD4; huCD4
In words: FACS confirmation, supernatant on human PBMCs.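 Further: flow cytometry with hybridoma supernatants incubated on human PBMCs for 30 min at 4 °C.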

For assay [3], the target named is T2, human CD4 on cells (SKW3 cells; human …). In words: FACS confirmation, supernatant on SKW3 cells; background gMFI 2500.
Assay [4] has the same target. In words: FACS confirmation, supernatant on SKW3 cells; background gMFI 3300.
For assay [5] the target is unchanged. The assay is described as follows: FACS primary screen, hybridoma supernatant, SKW3 vs SKW3 CD4 KO cells.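 Further: flow cytometry on mixed SKW3 and dye-labeled SKW3 CD4 knockout cells after 30 min at 4 °C with supernatant, ratio of binding signal on parental versus knockout cells.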

T1 sequence (P01732 22-235, chain 1 of 2): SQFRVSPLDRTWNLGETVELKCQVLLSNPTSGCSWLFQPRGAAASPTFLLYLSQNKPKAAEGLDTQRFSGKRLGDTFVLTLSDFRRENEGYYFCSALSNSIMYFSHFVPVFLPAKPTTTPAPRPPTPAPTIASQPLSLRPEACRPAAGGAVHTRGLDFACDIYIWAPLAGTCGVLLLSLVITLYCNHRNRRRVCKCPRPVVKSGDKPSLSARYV
T1 sequence (P10966 22-210, chain 2 of 2): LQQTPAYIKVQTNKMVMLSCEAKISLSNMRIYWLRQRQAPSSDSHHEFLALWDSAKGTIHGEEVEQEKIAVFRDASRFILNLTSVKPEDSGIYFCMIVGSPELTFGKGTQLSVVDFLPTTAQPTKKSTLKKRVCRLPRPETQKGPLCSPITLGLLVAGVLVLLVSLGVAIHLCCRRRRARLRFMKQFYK

B1: CD8B347 (antibody, human IgG1, kappa)
heavy: not shown
light: DIQMTQSPASLSASVGETVTITCRASGNIHNYLAWYQQKQGKSPQLLVFNAETLADGVPSRFSGSGSGTQFSLKINSLQPEDFGTYYCQHFWNNPLTLGAGTKLELKRTVAAPSVFIFPPSDEQLKSGTASVVCLLNNFYPREAKVQWKVDNALQSGNSQESVTEQDSKDSTYSLSSTLTLSKADYEKHKVYACEVTHQGLSSPVTKSFNRGEC
notes: Full-length human IgG1, kappa; V regions recovered from mouse hybridoma
Regarding B1, in assay [1], the “Cell Binding to Human PanT Signal/Background (of CD4 negative population)” value was 1200.

B2: CD8B356 (antibody, human IgG1, kappa, V domains shown)
VH: DVQLQESGPGLVKPSQSLSLTCSVTGYSITSGYYWNWIRQFPGNKLEWMGYISYDGSNNYNPSLKNRISITRDTSKNQFFLKLNSVTTEDTATYYCVRNHGDAMDYWGQGTSVTVSS
VL: DIVLTQSQKFMSTTVGDRVSITCKASQNVGTAVAWYQQKPGQSPKLLIYSASYRYTGVPDRFTGSGSGTHFTLTISNMQSEDLADYFCQQYSSYLTFGSGTKLEIKR
notes: as for B1
For B2, in assay [1], the “Cell Binding to Human PanT Signal/Background (of CD4 negative population)” value was found to be 777.

B3: CD8B319 (antibody, human IgG1, kappa, V domains shown)
VH: QVQLKESGPELKKPGETVKISCKASGYSFTAYYMHWVKQSPEKSLEWIGEINPSAGGTTYNQKFKAKATLTVDKSSSTAFIQLKSLTSEDSAVYYCARWTNPFDYWGQGTTLTVSS
VL: DIVMTQSQKFMSTTVGDRVSITCKASQNVGTAVAWYQQKPGQSPKLLIYSASYRYTGVPDRFTGSGSGTHFTLTISNIQSEDLADYFCQQYNNYLTFGSGTKLEIKR
notes: as for B1
B3: in assay [1], the “Cell Binding to Human PanT Signal/Background (of CD4 negative population)” value came to 16.

B4: CD8B269 (antibody, human IgG1, kappa, V domains shown)
VH: DVQLQESGPGLVKPSQSLSLTCSVTGYSITSGYYWNWIRQFPGNKLEWMGYISYDGSNNYNPSLKNRISITRDTSKNQFFLKLNSVTTEDTATYYCVRNHGDAMDHWGQGTTLTVSS
VL: DIVMTQSQKFMSTSVGDRVRVTCKASQNVGTDVAWYQQKPGQSPKALIYSASYRYSGVPDRFTGSGSGTDFTLTISDVQSEDLAEYFCQQYKSYPLTFGAGTKLELKR
notes: as for B1
B4: the “Cell Binding to Human PanT Signal/Background (of CD4 negative population)” value in assay [1] worked out at 26.

B5: CD8B182 (antibody, human IgG1, kappa, V domains shown)
VH: EVQLQQSGAALAKPGTSVKMSCKASGYTFTSYWMNWVRQRPGQGLEWIGAVNPTNYYTEYIQKFKDKAILTADKSSSTAYMHLSGLTSEDSAVYYCARSGLYNTNHLAWFAYWGQGTTVTVSS
VL: DIKMTQSPASLSASVGETVTITCRASENIHNYLAWYQQIQGKSPQLLVYNAKTLANGVPSRFSGSASGTQFSLTINSLQPEDFGSYYCQHFWTTPLTFGAGTKLELKR
notes: as for B1
As for B5, the “Cell Binding to Human PanT Signal/Background (of CD4 negative population)” value in assay [1] turned out to be 1490.

B6: CD8B350 (antibody, human IgG1, kappa, V domains shown)
VH: EVQLQQSGAELAKPGTSVKMSCKASGYTFAAYWINWLKQRPGQGLEWIGSINPSNGYTEYSQKFKDKAILTADKSSSTAYMQLSSLTSEDSAVYYCSRSGLYYTNHLAWCPYWGQGTTVTVSS
VL: DIVMTQSPASLSASVGETVTITCRASGNIHNYLAWYQQKQGKSPQVLVYNAETLADSVPSRFSGSGSGTQFSLKINSLQPEDFGNYYCQHFWNSPLTFGGGTKLEIKR
notes: as for B1
As for B6, the “Cell Binding to Human PanT Signal/Background (of CD4 negative population)” value in assay [1] stood at 537.

B7: CD8B251 (antibody, human IgG1, kappa, V domains shown)
VH: QVQLKGSGPGLVQPSQSLSITCTVSGFSLTTYAVHWVRQSPGKGLEWLGVIWSGGSTDYNAAFISRLSISKDNSKSQVFFKMNSLQADDTAIYYCARHSYYHYNAMDNWGQGTSVTVSS
VL: DIKMTQSQKFMSTTVGDRVSITCKASQNVGTAVAWYQQKPGQSPKLLIYSASNRYTGVPDRFTGSGSGTDFTLTISNMQSEDLADYFCQQYSSYPFTFGSGTKLEIKR
notes: as for B1
For B7, in assay [1], the “Cell Binding to Human PanT Signal/Background (of CD4 negative population)” value was found to be 37.

B8: CD8B310 (antibody, human IgG1, kappa, V domains shown)
VH: QVQLKESGPGLVAPSQSLSITCTVSGFSLTNYAVHWVRQSPGKGLEWLGVIWTDGSTDYNAGFISRLSISKDNSKSQVFFKMNSLQADDTAIYYCARNNGYFPAFFAYWGQGTTVTVSS
VL: DVLMTQTPLSLPVSLGDQASISCRSSQTIVHSNGNTYLEWYLQKPGQSPKLLMYKVSNRFSGVPDRFGGSGSGTDFTLKISRVEAEDLGVYYCFQGSHAPFTFGSGTKLEIKR
notes: as for B1
On to B8, for which the “Cell Binding to Human PanT Signal/Background (of CD4 negative population)” value in assay [1] is 29.

B9: CD8B312 (antibody, human IgG1, kappa, V domains shown)
VH: QVQLQQPGADLVKPGASVKLSCKASGYTFTSFWMHWVKQRPGQGLEWIGNVDPSDSQTHYNQKFKDKATLTVDKSSNTAYMQLSSLTSEDSAVYYCARSTYYRYDGPFTYWGQGTTVTVSS
VL: DIVLTQSPATLSVTPGDSVSLSCRASQSINNNLHWYQQKSHESPRLLIKYTSQSISGIPSRFSGSGSGPDFTLSINSVETEDFGMYFCQQSNSWPLTFGGGTKLEIKR
notes: as for B1
As for B9, the “Cell Binding to Human PanT Signal/Background (of CD4 negative population)” value in assay [1] came to 1090.

B10: 75110_06E14A (antibody, V domains shown)
VH: QVQLQESGPGLVKPSETLSLTCTVSGGSISNYFWSWIRQPAGKGLEWIGRIYSSGNTNYNPSLKSRVTMSVDTSKNQFSLKLSSVTAADTAVYYCARDREDYYYYGMDVWGQGTTVTVSS
VL: DIQMTQSPSSLSASVGDRVTITCQASQDISNYLNWYQQKPGKAPKLLIYGASILETGVPSRFTGSGSGTDFTFTISSLQPEDIATYYCQQYDSLPITFGQGTRLEIK
notes: Tested as non-clonal AlivaMab Mouse Kappa hybridoma supernatant (detected with anti-mouse Fc gamma and anti-human kappa)
With B10, in assay [2], the “PBMCs CD4+ gate RL1 binding, anti-mFc 647” value (from here on “PBMCs CD4+ gate RL1 binding”) was found to be 285000 and the “PBMCs CD4+ percent bound of viable” value came to 30%. For the same molecule, the “gMFI on SKW3 WT, anti-hu Kappa FITC” value in assay [3] stood at 8920 gMFI. Also, the “gMFI on SKW3 WT, anti-mFc 647” value in assay [4] was determined as 33800 gMFI. In assay [5], the “SKW3 WT vs KO ratio, anti-hKappa-FITC” value was determined as 3 and the “SKW3 WT vs KO ratio, anti-mFc-647” value is 9.8.

B11: 75110_14I16A (antibody, V domains shown)
VH: QVQLQESGPGLVKPSETLSLTCTVSNGSISSYYWSWIRQSAGKGLEWIGRIYTSGSTNYNPSLKSRVTMLVDTSKNQFSLKLSSVTAADTAVYYCARDREDYYYYGMDVWGQGTTVTVSS
VL: DIQMTQSPSSLSASVGDRVTITCQASHDISNYLNWYQQKPGKAPKLLLYYASNLETGVPSRFSGSGSGTDFTFTITSLQPEDIGTYSCQQYDNLPLTFGGGTKVEIK
notes: Tested as non-clonal AlivaMab Mouse Kappa hybridoma supernatant (detected with anti-mouse Fc gamma and anti-human kappa); also called 75110_14116A
In the case of B11, in assay [2], the “PBMCs CD4+ gate RL1 binding” value was 196000 and the “PBMCs CD4+ percent bound of viable” value is 23%. For the same molecule, the “gMFI on SKW3 WT, anti-hu Kappa FITC” value in assay [3] was found to be 3550 gMFI. For the same molecule, in assay [4], the “gMFI on SKW3 WT, anti-mFc 647” value is 6820 gMFI. For the same molecule, in assay [5], the “SKW3 WT vs KO ratio, anti-hKappa-FITC” value was 1.4 and the “SKW3 WT vs KO ratio, anti-mFc-647” value was determined as 2.1.

B12: 75110_08M20A (antibody, V domains shown)
VH: QVQLQESDPGLVKPSETLSLTCTVSGGSISSYYWSWIRQPAGKGLEWIGRIYASGSTNYNPSLKSRVTMSVDTSKNQFSLKLSSVTAADTAVYYCARDREGYYYYGMDVWGQGTTVTVSS
VL: DIQMTQSPSSLSASVGDRVTITCQASQDISKYLNWYQQKPGKAPNLLIYAASNLETGVPSRFSGSGSGTDFTFTISSLQPEDIAAYYCQQYDSLPITFGQGTRLEIK
notes: as for B10
For the molecule B12, in assay [2], the “PBMCs CD4+ gate RL1 binding” value turned out to be 319000 and the “PBMCs CD4+ percent bound of viable” value was 30%. In assay [3], the “gMFI on SKW3 WT, anti-hu Kappa FITC” value amounted to 7790 gMFI. In addition, the “gMFI on SKW3 WT, anti-mFc 647” value in assay [4] is 30700 gMFI. In assay [5], the “SKW3 WT vs KO ratio, anti-hKappa-FITC” value was found to be 2.7 and the “SKW3 WT vs KO ratio, anti-mFc-647” value was found to be 8.8.
